From patent US20150190489A1 (ONCOTHERAPY SCIENCE, published 2015)

Molecular target: T1, HLA-DR15 (DRB1*15:02) (human)
T1 construct: whole, on cells; Expressed on mouse fibroblast L-cells (L-DR15) or on donor APCs; also called L-DR15
Experiment: concluded from IFN-gamma ELISPOT with peptide-pulsed L-DR15 cells and HLA-blocking mAbs; no direct binding assay
Description: The immune response of Th cells to APCs pulsed with peptides and proteins were assessed by IFN-gamma ELISPOT assays (Human IFN-gamma ELISPOT kit, BD Biosciences) as described previously (Tomita Y, et al. Cancer Sci; 102: 697-705.). Briefly, the frequency of peptide-specific CD4⁺ T cells producing IFN-gamma per 3×10⁴ bulk CD4⁺ T cells upon stimulation with peptide-pulsed PBMCs (3×10⁴), or 1×10⁴ bulk CD4⁺ T cells upon stimulation with peptide-pulsed L-cells (5×10⁴/well) expressing HLA-DR was analyzed. The frequency of cells producing IFN-gamma per 1×10⁵ CTLs upon stimulation with peptide-pulsed T2 cells (2×10⁴/well) or C1R-A2402 cells (2×10⁴/well) was also analyzed. Alternatively, 5×10³ protein-loaded DCs were co-cultured with 2×10⁴ CD4⁺ T cell clones/well. The protein-loaded mature DCs were prepared from positively isolated CD14⁺ cells (day 0) as described previously (Harao M, et al. Int J Cancer 2008; 123: 2616-25.). On day 5, the DCs were cultured in the presence of the recombinant KIF20A (50 micro-g/ml) and OK432. The protein-loaded mature DCs were harvested on day 7, washed and used as stimulator in IFN-gamma ELISPOT assays. […]

binding result: binds
B1: KIF20A (60-84) (peptide)
peptide: DSMEKVKVYLRVRPLLPSELERQED
notes: Synthetic long peptide (purity >90%), pulsed on PBMCs, DCs or L-cell transfectants; also called KIF20A (60-84) LP; KIF20A (60-84) peptide
